Five substances from patent US20100028415A1 can be followed below.

Assay [1] deals with SS-A/Ro. As to the kind of experiment: Luminex AtheNA Multi-Lyte ANA Test, 0.15 µg mab per test.
Assay [2] addresses centromere B (UniProt P07199). Described as above.
The target of assay [3] is histones. The description is as above.
Assay [4] deals with Mab 4E10. As to the kind of experiment: competition ELISA: gp140 (19.25-1230 nM) mixed with 10 µg/ml 4E10 MAb, added to wells with 1.35 µg cardiolipin. (In general: In an ELISA, binding on a coated surface is turned into a signal by an enzyme label.)

UniProt P07199, sequence (P07199 2-599 limits assumed): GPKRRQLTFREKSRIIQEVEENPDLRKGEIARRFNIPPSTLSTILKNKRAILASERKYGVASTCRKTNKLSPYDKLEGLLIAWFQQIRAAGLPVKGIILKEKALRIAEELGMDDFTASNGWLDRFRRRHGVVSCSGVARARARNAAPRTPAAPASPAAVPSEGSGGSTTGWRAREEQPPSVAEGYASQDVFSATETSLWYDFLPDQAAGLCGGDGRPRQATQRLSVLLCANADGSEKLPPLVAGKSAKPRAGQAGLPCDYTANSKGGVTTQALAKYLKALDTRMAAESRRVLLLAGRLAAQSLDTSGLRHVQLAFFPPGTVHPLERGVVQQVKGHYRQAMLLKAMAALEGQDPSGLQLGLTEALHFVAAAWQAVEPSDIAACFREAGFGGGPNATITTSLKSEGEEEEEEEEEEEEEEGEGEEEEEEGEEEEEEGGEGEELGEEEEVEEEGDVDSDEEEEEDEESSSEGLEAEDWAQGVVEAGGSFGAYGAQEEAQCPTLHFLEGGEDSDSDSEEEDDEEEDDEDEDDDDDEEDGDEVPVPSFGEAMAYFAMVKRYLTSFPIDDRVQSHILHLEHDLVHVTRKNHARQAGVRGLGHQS

Mab 2F5 (antibody): in assay [1], the Ro (SSA) antibody value (relative units based on a standard curve) (relative units) was determined as 290. This substance also showed a centromere B antibody value (relative units based on a standard curve) (relative units) in assay [2] of 1780. The histone antibody value (relative units based on a standard curve) (relative units) in assay [3] came to 1010. Mab 4E10 (antibody) returned a Ro (SSA) antibody value (relative units based on a standard curve) (relative units) in assay [1] of 221. Mab IgG1b12 (antibody): in assay [2], the centromere B antibody value (relative units based on a standard curve) (relative units) turned out to be 479. This substance also returned a histone antibody value (relative units based on a standard curve) (relative units) in assay [3] of 185. In general, IC50 refers to the point on the concentration scale where inhibition reaches its midpoint. Take “soluble HIV-1 Env gp140 oligomers (CON-S)”: the IC50 in assay [4] amounted to 145 nM. Regarding A32 (antibody), the centromere B antibody value (relative units based on a standard curve) (relative units) in assay [2] was 1130.
